Laboratory results published in article PMC6007841 (Journal of medicinal chemistry, 2018).
Bridge positions count the residues as written; N and C are the ends. Ends that are not written are not given here.

Columns and labels:
Assay in all cases: cell-based or functional assay
[1] = molecular target: human melanocortin 3 receptor (human, UniProt P41968 1-323)
[2] = molecular target: mouse melanocortin 3 receptor (mouse, UniProt P33033 1-323)
[3] = molecular target: mouse melanocortin 5 receptor (mouse, UniProt P41149 1-325)
[4] = molecular target: human melanocortin 1 receptor (human, UniProt Q01726 1-317)
[5] = molecular target: human melanocortin 4 receptor (human, UniProt P32245 1-332)
[6] = molecular target: mouse melanocortin 1 receptor (mouse, UniProt Q01727 1-315)
Chain of mouse melanocortin 1 receptor (Q01727 whole entry): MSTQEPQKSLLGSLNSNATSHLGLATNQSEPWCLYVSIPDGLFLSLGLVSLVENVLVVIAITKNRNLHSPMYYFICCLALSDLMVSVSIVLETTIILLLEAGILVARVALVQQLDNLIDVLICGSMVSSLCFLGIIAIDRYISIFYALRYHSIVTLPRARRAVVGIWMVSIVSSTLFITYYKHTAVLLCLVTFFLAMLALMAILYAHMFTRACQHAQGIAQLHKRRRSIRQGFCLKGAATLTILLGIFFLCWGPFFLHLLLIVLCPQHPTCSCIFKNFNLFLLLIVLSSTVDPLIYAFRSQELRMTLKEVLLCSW

Chain of human melanocortin 1 receptor (Q01726 whole entry): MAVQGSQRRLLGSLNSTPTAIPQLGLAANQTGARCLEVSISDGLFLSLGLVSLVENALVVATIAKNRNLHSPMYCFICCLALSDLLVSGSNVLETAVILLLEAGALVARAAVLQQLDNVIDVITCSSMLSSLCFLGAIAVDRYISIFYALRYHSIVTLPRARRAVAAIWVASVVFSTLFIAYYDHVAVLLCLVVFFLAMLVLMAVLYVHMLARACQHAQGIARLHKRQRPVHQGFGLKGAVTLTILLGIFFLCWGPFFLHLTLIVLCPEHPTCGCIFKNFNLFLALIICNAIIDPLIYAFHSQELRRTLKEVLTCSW
Chain of mouse melanocortin 5 receptor (P41149 whole entry): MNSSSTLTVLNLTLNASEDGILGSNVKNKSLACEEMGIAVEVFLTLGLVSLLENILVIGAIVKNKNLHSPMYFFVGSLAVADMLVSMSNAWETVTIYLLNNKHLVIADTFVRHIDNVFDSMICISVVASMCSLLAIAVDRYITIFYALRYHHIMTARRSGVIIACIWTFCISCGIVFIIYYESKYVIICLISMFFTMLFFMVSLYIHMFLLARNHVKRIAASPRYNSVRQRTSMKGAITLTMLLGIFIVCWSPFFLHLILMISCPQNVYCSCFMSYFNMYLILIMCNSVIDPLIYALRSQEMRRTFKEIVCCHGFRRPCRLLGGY
Chain of human melanocortin 4 receptor (P32245 whole entry): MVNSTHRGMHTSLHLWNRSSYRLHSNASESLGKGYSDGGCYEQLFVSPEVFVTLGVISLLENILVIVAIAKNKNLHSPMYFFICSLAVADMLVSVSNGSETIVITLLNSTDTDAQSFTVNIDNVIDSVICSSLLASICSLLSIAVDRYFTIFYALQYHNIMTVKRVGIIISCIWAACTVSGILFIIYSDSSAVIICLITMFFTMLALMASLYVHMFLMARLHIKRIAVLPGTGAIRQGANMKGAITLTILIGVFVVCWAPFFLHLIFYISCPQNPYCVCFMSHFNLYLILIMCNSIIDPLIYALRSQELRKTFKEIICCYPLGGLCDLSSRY
Chain of mouse melanocortin 3 receptor (P33033 whole entry): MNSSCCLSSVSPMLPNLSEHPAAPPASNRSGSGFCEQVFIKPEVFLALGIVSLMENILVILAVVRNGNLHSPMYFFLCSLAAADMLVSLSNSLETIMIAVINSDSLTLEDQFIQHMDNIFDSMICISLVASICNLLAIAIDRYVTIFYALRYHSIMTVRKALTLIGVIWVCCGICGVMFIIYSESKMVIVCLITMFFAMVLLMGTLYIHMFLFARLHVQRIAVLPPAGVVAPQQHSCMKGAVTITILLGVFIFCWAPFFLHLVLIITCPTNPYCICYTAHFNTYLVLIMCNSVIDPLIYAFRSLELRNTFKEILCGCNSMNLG
Chain of human melanocortin 3 receptor (P41968 whole entry): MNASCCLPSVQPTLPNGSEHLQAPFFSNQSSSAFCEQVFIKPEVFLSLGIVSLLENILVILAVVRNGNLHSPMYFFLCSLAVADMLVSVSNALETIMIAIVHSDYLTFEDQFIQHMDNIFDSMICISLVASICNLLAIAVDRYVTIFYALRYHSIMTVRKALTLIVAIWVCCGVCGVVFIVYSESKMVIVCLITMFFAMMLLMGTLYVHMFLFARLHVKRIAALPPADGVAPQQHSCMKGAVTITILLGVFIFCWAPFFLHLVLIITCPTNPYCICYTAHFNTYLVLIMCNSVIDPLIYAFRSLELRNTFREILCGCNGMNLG

| Binder | cAMP agonist EC50 (AlphaScreen cAMP assay, HEK293 cells expressing the receptor) [1] | cAMP agonist EC50 (AlphaScreen cAMP assay, HEK293 cells expressing the receptor) [2] | cAMP agonist EC50 (AlphaScreen cAMP assay, HEK293 cells expressing the receptor) [3] | cAMP agonist EC50 (AlphaScreen cAMP assay, HEK293 cells expressing the receptor) [4] | cAMP agonist EC50 (AlphaScreen cAMP assay, HEK293 cells expressing the receptor) [5] | cAMP agonist EC50 (AlphaScreen cAMP assay, HEK293 cells expressing the receptor) [6] |
| --- | --- | --- | --- | --- | --- | --- |
| DQYKCLQHGGFCLRSSCPSNTKLQGTCKPDKPNCCKS (peptide, UniProt P56386 33-69, looked up, disulfide 12-27, 17-35, 5-34) [mouse β-defensin 1, oxidized form] | 22 µM | 14 µM | 5.2 µM | 1400 nM | 3.8 µM | 11 µM |
| DHYNCVSSGGQCLYSACPIFTKIQGTCYRGKAKCCK (peptide, UniProt P60022 33-68, looked up, oxidized form (disulfide bonds formed)) [human β-defensin 1, oxidized form] | – | – | – | 7400 nM | – | – |
| GIINTLQKYYCRVRGGRCAVLSCLPKEEQIGKCSTRGRKCCRRKK (peptide, UniProt P81534 23-67, looked up, oxidized, folded form (disulfide bonds formed)) [human β-defensin 3, oxidized, folded form] | – | – | 4.7 µM | 400 nM | 2.6 µM | 2.2 µM |
